Assay results reported in patent US7084111 (UNIVERSITY OF FLORIDA RESEARCH FOUNDATION, dated 2006).
Blank lines part the entries; values can stand above or below the binder they belong to. Bridges are numbered along the chain shown (N, C = ends). Where no end group is shown, it is not given here. [ ]: non-standard residue; d: D form. Nle = CCCC[C@H](N)C(=O)O; Dap = NC[C@H](N)C(=O)O

Tests used:
Assay in all cases: cell-based or functional assay
[1] = molecular target: mouse melanocortin-5 receptor (mouse, UniProt P41149 1-325)
Chain of mouse melanocortin-5 receptor (P41149 whole entry): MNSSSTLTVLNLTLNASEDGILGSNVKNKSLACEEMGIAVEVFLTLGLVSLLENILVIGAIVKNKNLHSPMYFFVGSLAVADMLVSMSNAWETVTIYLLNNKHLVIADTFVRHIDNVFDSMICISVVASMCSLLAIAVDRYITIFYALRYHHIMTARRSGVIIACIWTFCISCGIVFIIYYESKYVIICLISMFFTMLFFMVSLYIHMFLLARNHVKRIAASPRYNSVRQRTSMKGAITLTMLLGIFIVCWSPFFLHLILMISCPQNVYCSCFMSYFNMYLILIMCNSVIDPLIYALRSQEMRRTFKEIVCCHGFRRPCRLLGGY

[2] = molecular target: T1, mouse melanocortin-1 receptor (mouse, UniProt Q01727 1-315)
T1 sequence (Q01727 whole entry): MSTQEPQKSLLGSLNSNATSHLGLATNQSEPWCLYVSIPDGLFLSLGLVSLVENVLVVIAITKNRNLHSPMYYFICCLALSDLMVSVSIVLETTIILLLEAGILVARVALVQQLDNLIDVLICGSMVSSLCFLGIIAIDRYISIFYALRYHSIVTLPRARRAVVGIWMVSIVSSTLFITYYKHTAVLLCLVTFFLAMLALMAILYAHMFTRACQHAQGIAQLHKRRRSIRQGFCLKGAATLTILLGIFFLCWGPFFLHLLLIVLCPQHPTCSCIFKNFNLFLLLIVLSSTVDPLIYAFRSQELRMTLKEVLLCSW

[3] = molecular target: mouse melanocortin-4 receptor (mouse, UniProt P56450 1-332)
Chain of mouse melanocortin-4 receptor (P56450 whole entry): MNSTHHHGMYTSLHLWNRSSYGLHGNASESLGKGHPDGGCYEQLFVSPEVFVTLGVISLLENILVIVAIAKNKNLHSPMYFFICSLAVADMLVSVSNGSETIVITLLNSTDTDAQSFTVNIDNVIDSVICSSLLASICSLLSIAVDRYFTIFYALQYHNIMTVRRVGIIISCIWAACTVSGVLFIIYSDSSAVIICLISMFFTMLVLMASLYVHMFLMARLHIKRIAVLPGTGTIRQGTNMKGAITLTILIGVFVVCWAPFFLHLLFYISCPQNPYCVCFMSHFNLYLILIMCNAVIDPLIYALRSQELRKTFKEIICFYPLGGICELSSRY

[4] = molecular target: T1, mouse melanocortin-1 receptor; remark: listed apart in the source
[5] = molecular target: T2, mouse melanocortin-3 receptor (mouse, UniProt P33033 1-323)
T2 sequence (P33033 whole entry): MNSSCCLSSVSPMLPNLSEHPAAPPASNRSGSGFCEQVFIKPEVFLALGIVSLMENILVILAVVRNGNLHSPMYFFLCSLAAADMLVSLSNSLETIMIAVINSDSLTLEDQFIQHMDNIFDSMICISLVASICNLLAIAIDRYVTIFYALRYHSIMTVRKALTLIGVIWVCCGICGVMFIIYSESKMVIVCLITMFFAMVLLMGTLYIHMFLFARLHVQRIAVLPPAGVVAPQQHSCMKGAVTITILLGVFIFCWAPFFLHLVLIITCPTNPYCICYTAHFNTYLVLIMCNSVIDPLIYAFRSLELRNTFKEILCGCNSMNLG

[6] = molecular target: T2, mouse melanocortin-3 receptor; remark: listed apart in the source

EC50 (agonist) [1]: 100 µM
EC50 (agonist) [2]: 13.3 µM
EC50 (agonist) [3]: > 100 µM
fold decrease in agonist potency, fold change against SEQ ID NO:3 [4]: 8 fold
B1: SEQ ID NO:8 (Tyr-c[Asp-His-Arg-Phe-Phe-Asn-Ala-Phe-Dpr]-Tyr) (peptide)
peptide: YDHRFFNAF[Dap]Y-NH2
modifications: lactam 2-10; N-terminus assumed
SMILES: C[C@@H]1NC(=O)[C@H](CC(N)=O)NC(=O)[C@H](Cc2ccccc2)NC(=O)[C@H](Cc2ccccc2)NC(=O)[C@H](CCCNC(=N)N)NC(=O)[C@H](Cc2c[nH]cn2)NC(=O)[C@@H](NC(=O)[C@@H](N)Cc2ccc(O)cc2)CC(=O)NC[C@@H](C(=O)N[C@@H](Cc2ccc(O)cc2)C(N)=O)NC(=O)[C@H](Cc2ccccc2)NC1=O

EC50 (agonist) [1]: 0.45 µM
EC50 (agonist) [2]: 0.00728 µM
EC50 (agonist) [5]: 6.21 µM
agonist potency, fold change against SEQ ID NO:15 [4]: 8 fold
fold decrease in agonist potency, fold change against SEQ ID NO:15 [6]: 13 fold
B2: SEQ ID NO:17 (Ac-Ser-Tyr-Ser-Nle-Glu-His-Arg-DPhe-Phe-Gly-Lys-Pro-Val-NH2) (peptide)
peptide: Ac-SYS[Nle]EHR[dF]FGKPV-NH2
SMILES: CCCC[C@H](NC(=O)[C@H](CO)NC(=O)[C@H](Cc1ccc(O)cc1)NC(=O)[C@H](CO)NC(C)=O)C(=O)N[C@@H](CCC(=O)O)C(=O)N[C@@H](Cc1c[nH]cn1)C(=O)N[C@@H](CCCNC(=N)N)C(=O)N[C@H](Cc1ccccc1)C(=O)N[C@@H](Cc1ccccc1)C(=O)NCC(=O)N[C@@H](CCCCN)C(=O)N1CCC[C@H]1C(=O)N[C@H](C(N)=O)C(C)C
